In US10233474B2, “Materials and methods for producing 6-carbon monomers” (INVISTA North America S.á.r.l., priority 2014, dated 2019):

B1: SEQ ID NO 7: Chromobacterium violaceum ω-transaminase, N-terminal His-tagged (protein, listed as Chromobacterium violaceum)
chain: MQKQRTTSQWRELDAAHHLHPFTDTASLNQAGARVMTRGEGVYLWDSEGNKIIDGMAGLWCVNVGYGRKDFAEAARRQMEELPFYNTFFKTTHPAVVELSSLLAEVTPAGFDRVFYTNSGSESVDTMIRMVRRYWDVQGKPEKKTLIGRWNGYHGSTIGGASLGGMKYMHEQGDLPIPGMAHIEQPWWYKHGKDMTPDEFGVVAARWLEEKILEIGADKVAAFVGEPIQGAGGVIVPPATYWPEIERICRKYDVLLVADEVICGFGRTGEWFGHQHFGFQPDLFTAAKGLSSGYLPIGAVFVGKRVAEGLIAGGDFNHGFTYSGHPVCAAVAHANVAALRDEGIVQRVKDDIGPYMQKRWRETFSRFEHVDDVRGVGMVQAFTLVKNKAKRELFPDFGEIGTLCRDIFFRNNLIMRACGDHIVSAPPLVMTRAEVDEMLAVAERCLEEFEQTLKARGLA
modifications: N-terminal His tag
notes: Chromobacterium violaceum ω-transaminase, N-terminal His-tagged
B2: SEQ ID NO 9: Pseudomonas syringae ω-transaminase, N-terminal His-tagged (protein, listed as Pseudomonas syringae)
chain: MSANNPQTLEWQALSSEHHLAPFSDYKQLKEKGPRIITRAEGVYLWDSEGNKILDGMSGLWCVAIGYGREELADAASKQMRELPYYNLFFQTAHPPVLELAKAISDIAPEGMNHVFFTGSGSEGNDTMLRMVRHYWALKGQPNKKTIISRVNGYHGSTVAGASLGGMTYMHEQGDLPIPGVVHIPQPYWFGEGGDMTPDEFGIWAAEQLEKKILELGVENVGAFIAEPIQGAGGVIVPPDSYWPKIKEILSRYDILFAADEVICGFGRTSEWFGSDFYGLRPDMMTIAKGLTSGYVPMGGLIVRDEIVAVLNEGGDFNHGFTYSGHPVAAAVALENIRILREEKIVERVRSETAPYLQKRLRELSDHPLVGEVRGVGLLGAIELVKDKTTRERYTDKGAGMICRTFCFDNGLIMRAVGDTMIIAPPLVISFAQIDELVEKARTCLDLTLAVLQG
modifications: N-terminal His tag
notes: Pseudomonas syringae ω-transaminase, N-terminal His-tagged
B3: SEQ ID NO 12: Vibrio fluvialis ω-transaminase, N-terminal His-tagged (protein, listed as Vibrio fluvialis)
chain: MNKPQSWEARAETYSLYGFTDMPSLHQRGTVVVTHGEGPYIVDVNGRRYLDANSGLWNMVAGFDHKGLIDAAKAQYERFPGYHAFFGRMSDQTVMLSEKLVEVSPFDSGRVFYTNSGSEANDTMVKMLWFLHAAEGKPQKRKILTRWNAYHGVTAVSASMTGKPYNSVFGLPLPGFVHLTCPHYWRYGEEGETEEQFVARLARELEETIQREGADTIAGFFAEPVMGAGGVIPPAKGYFQAILPILRKYDIPVISDEVICGFGRTGNTWGCVTYDFTPDAIISSKNLTAGFFPMGAVILGPELSKRLETAIEAIEEFPHGFTASGHPVGCAIALKAIDVVMNEGLAENVRRLAPRFEERLKHIAERPNIGEYRGIGFMWALEAVKDKASKTPFDGNLSVSERIANTCTDLGLICRPLGQSVVLCPPFILTEAQMDEMFDKLEKALDKVFAEVA
modifications: N-terminal His tag
notes: Vibrio fluvialis ω-transaminase, N-terminal His-tagged
B4: SEQ ID NO 8: Pseudomonas aeruginosa ω-transaminase, N-terminal His-tagged (protein, listed as Pseudomonas aeruginosa)
chain: MNARLHATSPLGDADLVRADQAHYMHGYHVFDDHRVNGSLNIAAGDGAYIYDTAGNRYLDAVGGMWCTNIGLGREEMARTVAEQTRLLAYSNPFCDMANPRAIELCRKLAELAPGDLDHVFLTTGGSTAVDTAIRLMHYYQNCRGKRAKKHVITRINAYHGSTFLGMSLGGKSADRPAEFDFLDERIHHLACPYYYRAPEGLGEAEFLDGLVDEFERKILELGADRVGAFISEPVFGSGGVIVPPAGYHRRMWELCQRYDVLYISDEVVTSFGRLGHFFASQAVFGVQPDIILTAKGLTSGYQPLGACIFSRRIWEVIAEPDKGRCFSHGFTYSGHPVACAAALKNIEIIEREGLLAHADEVGRYFEERLQSLRDLPIVGDVRGMRFMACVEFVADKASKALFPESLNIGEWVHLRAQKRGLLVRPIVHLNVMSPPLILTREQVDTVVRVLRESIEETVEDLVRAGHR
modifications: N-terminal His tag
notes: Pseudomonas aeruginosa ω-transaminase, N-terminal His-tagged
B5: SEQ ID NO: 6: Segniliparus rotundus carboxylate reductase, N-terminal His-tagged (protein, listed as Segniliparus rotundus)
chain: MTQSHTQGPQASAAHSRLARRAAELLATDPQAAATLPDPEVVRQATRPGLRLAERVDAILSGYADRPALGQRSFQTVKDPITGRSSVELLPTFDTITYRELRERATAIASDLAHHPQAPAKPGDFLASIGFISVDYVAIDIAGVFAGLTAVPLQTGATLATLTAITAETAPTLFAASIEHLPTAVDAVLATPSVRRLLVFDYRAGSDEDREAVEAAKRKIADAGSSVLVDVLDEVIARGKSAPKAPLPPATDAGDDSLSLLIYTSGSTGTPKGAMYPERNVAHFWGGVWAAAFDEDAAPPVPAINITFLPLSHVASRLSLMPTLARGGLMHFVAKSDLSTLFEDLKLARPTNLFLVPRVVEMLYQHYQSELDRRGVQDGTREAEAVKDDLRTGLLGGRILTAGFGSAPLSAELAGFIESLLQIHLVDGYGSTEAGPVWRDGYLVKPPVTDYKLIDVPELGYFSTDSPHPRGELAIKTQTILPGYYKRPETTAEVFDEDGFYLTGDVVAQIGPEQFAYVDRRKNVLKLSQGEFVTLAKLEAAYSSSPLVRQLFVYGSSERSYLLAVIVPTPDALKKFGVGEAAKAALGESLQKIARDEGLQSYEVPRDFIIETDPFTVENGLLSDARKSLRPKLKEHYGERLEAMYKELADGQANELRDIRRGVQQRPTLETVRRAAAAMLGASAAEIKPDAHFTDLGGDSLSALTFSNFLHDLFEVDVPVGVIVSAANTLGSVAEHIDAQLAGGRARPTFATVHGKGSTTIKASDLTLDKFIDEQTLEAAKHLPKPADPPRTVLLTGANGWLGRFLALEWLERLAPAGGKLITIVRGKDAAQAKARLDAAYESGDPKLAGHYQDLAATTLEVLAGDFSEPRLGLDEATWNRLADEVDFISHPGALVNHVLPYNQLFGPNVAGVAEIIKLAITTRIKPVTYLSTVAVAAGVEPSALDEDGDIRTVSAERSVDEGYANGYGNSKWGGEVLLREAHDRTGLPVRVFRSDMILAHQKYTGQVNATDQFTRLVQSLLATGLAPKSFYELDAQGNRQRAHYDGIPVDFTAESITTLGGDGLEGYRSYNVFNPHRDGVGLDEFVDWLIEAGHPITRIDDYDQWLSRFETSLRGLPESKRQASVLPLLHAFARPGPAVDGSPFRNTVFRTDVQKAKIGAEHDIPHLGKALVLKYADDIKQLGLL
modifications: N-terminal His tag
notes: Segniliparus rotundus carboxylate reductase, N-terminal His-tagged

Key:
Assay type in all cases: biochemical
[1] = ω-transaminase activity, reverse direction (6-aminohexanoate to adipate semialdehyde); conditions: cell free extract; 10 mM 6-aminohexanoate, 10 mM pyruvate, pH 7.5, 25° C., 24 h; RP-HPLC
Procedure: (§1) A nucleotide sequence encoding a His-tag was added to the nucleic acid sequences from Chromobacterium violaceum, Pseudomonas aeruginosa, Pseudomonas syringae, Rhodobacter sphaeroides, and Vibrio fluvialis encoding the ω-transaminases of SEQ ID NOs: 7, 8, 9, 10 and 12, respectively (see FIG. 6) such that N-terminal HIS tagged ω-transaminases could be produced. Each of the resulting modified genes was cloned into a pET21a expression vector under control of the T7 promoter and each expression vector was transformed into a BL21[DE3] E. coli host. The resulting recombinant E. coli strains were cultivated at 37° C. in a 250 mL shake flask culture containing 50 mL LB media and antibiotic selection pressure, with shaking at 230 rpm. Each culture was induced overnight at 16° C. using 1 mM IPTG.
(§2) The pellet from each induced shake flask culture was harvested via centrifugation. Each pellet was resuspended and lysed via sonication. The cell debris was separated from the supernatant via centrifugation and the cell free extract was used immediately in enzyme activity assays.
Enzyme activity assays in the reverse direction (i.e., 6-aminohexanoate to adipate semialdehyde) were performed in a buffer composed of a final concentration of 50 mM HEPES buffer (pH=7.5), 10 mM 6-aminohexanoate, 10 mM pyruvate and […] pyridoxyl 5′ phosphate. Each enzyme activity assay reaction was initiated by adding cell free extract of the ω-transaminase gene product or the empty vector control to the assay buffer containing the 6-aminohexanoate and incubated at 25° C. for 24 h, with shaking at 250 rpm. The formation of L-alanine from pyruvate was quantified via RP-HPLC.

[2] = ω-transaminase activity, forward direction (adipate semialdehyde to 6-aminohexanoate); conditions: cell free extract; 10 mM adipate semialdehyde, 10 mM L-alanine, pH 7.5, 25° C., 4 h; RP-HPLC
Procedure: as §1, §2
Enzyme activity in the forward direction (i.e., adipate semialdehyde to 6-aminohexanoate) was confirmed for the transaminases of SEQ ID NO 7, SEQ ID NO 8, SEQ ID NO 9, SEQ ID NO 10 and SEQ ID NO 12. Enzyme activity assays were performed in a buffer composed of a final concentration of 50 mM HEPES buffer (pH=7.5), 10 mM adipate semialdehyde, 10 mM L-alanine and 100 μM pyridoxyl 5′ phosphate. Each enzyme activity assay reaction was initiated by adding a cell free extract of the ω-transaminase gene product or the empty vector control to the assay buffer containing the adipate semialdehyde and incubated at 25° C. for 4 h, with shaking at 250 rpm. The formation of pyruvate was quantified via RP-HPLC.

[3] = carboxylate reductase activity (adipate semialdehyde to hexanedial); conditions: purified enzyme with sfp phosphopantetheine transferase; 2 mM adipate semialdehyde, pH 7.5, room temperature, 20 min
Procedure: The N-terminal His-tagged carboxylate reductase of SEQ ID NO 6 (see Example 2 and FIG. 6) was assayed using adipate semialdehyde as substrate. The enzyme activity assay was performed in triplicate in a buffer composed of a final concentration of 50 mM HEPES buffer (pH=7.5), 2 mM adipate semialdehyde, 10 mM MgCl2, 1 mM ATP and 1 mM NADPH. The enzyme activity assay reaction was initiated by adding purified carboxylate reductase and phosphopantetheine transferase or the empty vector control to the assay buffer containing the adipate semialdehyde and then incubated at room temperature for 20 min. The consumption of NADPH was monitored by absorbance at 340 nm.

Row | Molecule | ω-transaminase activity: conversion of pyruvate to L-alanine with 6-aminohexanoate as substrate, against the empty vector control [1] | ω-transaminase activity: conversion of L-alanine to pyruvate with adipate semialdehyde as substrate, against the empty vector control [2] | carboxylate reductase activity: consumption of NADPH (absorbance at 340 nm) with adipate semialdehyde as substrate, against the empty vector control [3]
1 | SEQ ID NO 10: Rhodobacter sphaeroides ω-transaminase, N-terminal His-tagged | accepted 6-aminohexanote as substrate | accepted adipate semialdehyde as substrate | –
2 | B1 | accepted 6-aminohexanote as substrate | accepted adipate semialdehyde as substrate | –
3 | B2 | accepted 6-aminohexanote as substrate | accepted adipate semialdehyde as substrate | –
4 | B3 | accepted 6-aminohexanote as substrate | accepted adipate semialdehyde as substrate | –
5 | B4 | – | accepted adipate semialdehyde as substrate | –
6 | B5 | – | – | accepted adipate semialdehyde as substrate
